Laboratory results published in doi:10.1101/2025.07.08.663435 (bioRxiv, 2025).

T1: SMCHD1 ATPase domain (UniProt A6NHR9 25-581)
T1 sequence: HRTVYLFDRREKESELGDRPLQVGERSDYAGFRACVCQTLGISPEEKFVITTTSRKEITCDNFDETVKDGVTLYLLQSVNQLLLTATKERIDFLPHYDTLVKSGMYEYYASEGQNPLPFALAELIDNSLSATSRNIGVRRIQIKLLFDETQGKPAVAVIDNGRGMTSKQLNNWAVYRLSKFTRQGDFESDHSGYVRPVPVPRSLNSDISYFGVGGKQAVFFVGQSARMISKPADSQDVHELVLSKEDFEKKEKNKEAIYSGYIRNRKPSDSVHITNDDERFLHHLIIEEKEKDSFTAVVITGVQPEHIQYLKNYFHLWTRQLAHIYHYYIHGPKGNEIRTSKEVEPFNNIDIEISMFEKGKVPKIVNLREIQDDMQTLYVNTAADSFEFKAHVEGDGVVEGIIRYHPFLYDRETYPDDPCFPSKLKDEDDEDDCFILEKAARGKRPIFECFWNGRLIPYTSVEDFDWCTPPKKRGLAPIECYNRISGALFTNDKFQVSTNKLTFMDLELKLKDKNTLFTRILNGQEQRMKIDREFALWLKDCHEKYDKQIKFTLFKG


Key:
[1] = biological target: T1, SMCHD1 ATPase domain; experiment: EMSA
[2] = biological target: the molecule itself; experiment: atomic force microscopy

Binder	binding result [1]	binding result [2]
FAM 37 bp duplex (dsDNA) DNA 1: CCTAGGCTACACCTACTCTTTGTAAGAATTAAGCTTC DNA 2: GAAGCTTAATTCTTACAAAGAGTAGGTGTAGCCTAGG	binds	–
SMCHD1^△CC, truncated SMCHD1 without both coiled-coil domains, purified (natural protein, human, UniProt A6NHR9 1-2005, looked up) MAAADGGGPGGASVGTEEDGGGVGHRTVYLFDRREKESELGDRPLQVGERSDYAGFRACVCQTLGISPEEKFVITTTSRKEITCDNFDETVKDGVTLYLLQSVNQLLLTATKERIDFLPHYDTLVKSGMYEYYASEGQNPLPFALAELIDNSLSATSRNIGVRRIQIKLLFDETQGKPAVAVIDNGRGMTSKQLNNWAVYRLSKFTRQGDFESDHSGYVRPVPVPRSLNSDISYFGVGGKQAVFFVGQSARMISKPADSQDVHELVLSKEDFEKKEKNKEAIYSGYIRNRKPSDSVHITNDDERFLHHLIIEEKEKDSFTAVVITGVQPEHIQYLKNYFHLWTRQLAHIYHYYIHGPKGNEIRTSKEVEPFNNIDIEISMFEKGKVPKIVNLREIQDDMQTLYVNTAADSFEFKAHVEGDGVVEGIIRYHPFLYDRETYPDDPCFPSKLKDEDDEDDCFILEKAARGKRPIFECFWNGRLIPYTSVEDFDWCTPPKKRGLAPIECYNRISGALFTNDKFQVSTNKLTFMDLELKLKDKNTLFTRILNGQEQRMKIDREFALWLKDCHEKYDKQIKFTLFKGVITRPDLPSKKQGPWATYAAIEWDGKIYKAGQLVKTIKTLPLFYGSIVRFFLYGDHDGEVYATGGEVQIAMEPQALYDEVRTVPIAKLDRTVAEKAVKKYVEDEMARLPDRLSVTWPEGDELLPNEVRPAGTPIGALRIEILNKKGEAMQKLPGTSHGGSKKLLVELKVILHSSSGNKEIISHISQHGGKWPYWFKKMENIQKLGNYTLKLQVVLNESNADTYAGRPLPSKAIKFSVKEGKPEKFSFGLLDLPFRVGVPFNIPLEFQDEFGHTSQLVTDIQPVLEASGLSLHYEEITKGPNCVIRGVTAKGPVNSCQGKNYNLKVTLPGLKEDSQILKIRLLPGHPRRLKVKPDSEILVIENGTAFPFQVEVLDESDNITAQPKLIVHCKFSGAPNLPVYVVDCSSSGTSILTGSAIQVQNIKKDQTLKARIEIPSCKDVAPVEKTIKLLPSSHVARLQIFSVEGQKAIQIKHQDEVNWIAGDIMHNLIFQMYDEGEREINITSALAEKIKVNWTPEINKEHLLQGLLPDVQVPTSVKDMRYCQVSFQDDHVSLESAFTVRPLPDEPKHLKCEMKGGKTVQMGQELQGEVVIIITDQYGNQIQAFSPSSLSSLSIAGVGLDSSNLKTTFQENTQSISVRGIKFIPGPPGNKDLCFTWREFSDFIRVQLISGPPAKLLLIDWPELKESIPVINGRDLQNPIIVQLCDQWDNPAPVQHVKISLTKASNLKLMPSNQQHKTDEKGRANLGVFSVFAPRGEHTLQVKAIYNKSIIEGPIIKLMILPDPEKPVRLNVKYDKDASFLAGGLFTDFMISVISEDDSIIKNINPARISMKMWKLSTSGNRPPANAETFSCNKIKDNDKEDGCFYFRDKVIPNKVGTYCIQFGFMMDKTNILNSEQVIVEVLPNQPVKLVPKIKPPTPAVSNVRSVASRTLVRDLHLSITDDYDNHTGIDLVGTIIATIKGSNEEDTDTPLFIGKVRTLEFPFVNGSAEIMSLVLAESSPGRDSTEYFIVFEPRLPLLSRTLEPYILPFMFYNDVQQVPHIEALLKRKLSEQEELKKKPRRSCTLPNYTKGSGDVLGKIAHLAQIEDDRAAMVISWHLASDMDCVVTLTTDAARRIYDETQGRQQVLPLDSIYKKTLPDWKRSLPHFRNGKLYFKPIGDPVFARDLLTFPDNVEHCETVFGMLLGDTIILDNLDAANHYRKEVVKITHCPTLLTRDGDRIRSNGKFGGLQNKAPPMDKLRGMVFGAPVPKQCEEKLGMTPIRKCNDSLRHSPKVETTDCPVPPKRMRREATRQNRIITKTDV	–	binds
